Measured values: article PMC5686127, “Accessibility of the histone H3 tail in the nucleosome for binding of paired readers” (Nature Communications, 2017)
pKd: −log10 of the molar value.

Tests used:
[1] = biological target: nucleosome (NCP) with fluorescein-labelled DNA, for fluorescence polarization (human); test: fluorescence polarisation; increasing amounts of CHD4 PHD1/2, PHD1 or PHD2 added to 5 nM nucleosomes with fluorescein-labelled DNA; 15 mM Tris pH 7.5, 75 mM NaCl, 0.00625% Tween20, 3 mM DTT; apparent
[2] = system: LexA; test: FRET (nucleosome unwrapping); conditions: FP: 15 mM Tris pH 7.5, 75 mM NaCl, 0.00625% Tween20, 3 mM DTT, 5 nM NCP, FRET: 15 mM Tris pH 7.5, 1 mM EDTA, 0.00625% Tween20, 25 nM NCP, NMR: …
[3] = system: CHD4 PHD1/2; test: FRET (nucleosome unwrapping); conditions: 1.4 uM LexA present, FP: 15 mM Tris pH 7.5, 75 mM NaCl, 0.00625% Tween20, 3 mM DTT, 5 nM NCP, FRET: 15 mM Tris pH 7.5, 1 mM EDTA, 0.00625% Tween20, 25 nM NCP, NMR: …
[4] = system: CHD4 PHD1/2; test: fluorescence polarization; conditions: 75 mM NaCl, apparent Kd, FP: 15 mM Tris pH 7.5, 75 mM NaCl, 0.00625% Tween20, 3 mM DTT, 5 nM NCP, FRET: 15 mM Tris pH 7.5, 1 mM EDTA, 0.00625% Tween20, 25 nM NCP, NMR: …

Sequence of CHD4 PHD1/2 (aa 361–503) (Q14839 361-503): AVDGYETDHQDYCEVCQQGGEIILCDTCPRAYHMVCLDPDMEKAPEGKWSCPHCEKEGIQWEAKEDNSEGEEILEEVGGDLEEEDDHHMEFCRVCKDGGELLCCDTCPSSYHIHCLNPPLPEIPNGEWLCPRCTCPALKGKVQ

**Q.** How did the pKd [1] turn out when “CHD4 PHD1/2 (aa 361–503) (from UniProt Q14839 361-503) (domain or fragment)” was run?
**A.** 6.20

**Q.** Which K half [2] does the source give for Cy3-Cy5-NCP, 601 L with LexA site here?
**A.** 1400 nM

**Q.** And the K half [3]?
**A.** 32 µM

**Q.** Fluorescein-NCP, 601 L with LexA site was tested. Which pKd [4] did it give?
**A.** 6.20
